Legend:
[1] = target: GST-XIAP fusion protein, P98170
[2] = target: GST-c-IAP-1, Q13490
[3] = target: GST-c-IAP-2, Q13489
Sequence of GST-c-IAP-2, Q13489 (Q13489 whole entry): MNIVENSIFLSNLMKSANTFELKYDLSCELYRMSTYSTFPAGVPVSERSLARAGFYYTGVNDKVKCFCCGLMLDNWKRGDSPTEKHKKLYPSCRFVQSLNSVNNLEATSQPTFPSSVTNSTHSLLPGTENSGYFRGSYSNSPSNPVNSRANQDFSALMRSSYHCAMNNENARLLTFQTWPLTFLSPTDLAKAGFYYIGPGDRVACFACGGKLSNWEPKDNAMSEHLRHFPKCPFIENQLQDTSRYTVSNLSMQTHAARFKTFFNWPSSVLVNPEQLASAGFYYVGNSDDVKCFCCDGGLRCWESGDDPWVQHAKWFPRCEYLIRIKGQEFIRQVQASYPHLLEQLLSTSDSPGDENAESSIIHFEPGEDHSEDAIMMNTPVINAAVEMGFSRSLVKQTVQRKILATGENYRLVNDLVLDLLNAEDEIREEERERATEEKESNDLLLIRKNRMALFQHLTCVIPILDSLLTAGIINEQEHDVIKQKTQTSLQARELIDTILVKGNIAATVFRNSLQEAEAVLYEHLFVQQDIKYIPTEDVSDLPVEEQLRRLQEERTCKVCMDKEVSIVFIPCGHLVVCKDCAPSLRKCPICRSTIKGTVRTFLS

Sequence of GST-XIAP fusion protein, P98170 (P98170 whole entry, the tested form may be a part): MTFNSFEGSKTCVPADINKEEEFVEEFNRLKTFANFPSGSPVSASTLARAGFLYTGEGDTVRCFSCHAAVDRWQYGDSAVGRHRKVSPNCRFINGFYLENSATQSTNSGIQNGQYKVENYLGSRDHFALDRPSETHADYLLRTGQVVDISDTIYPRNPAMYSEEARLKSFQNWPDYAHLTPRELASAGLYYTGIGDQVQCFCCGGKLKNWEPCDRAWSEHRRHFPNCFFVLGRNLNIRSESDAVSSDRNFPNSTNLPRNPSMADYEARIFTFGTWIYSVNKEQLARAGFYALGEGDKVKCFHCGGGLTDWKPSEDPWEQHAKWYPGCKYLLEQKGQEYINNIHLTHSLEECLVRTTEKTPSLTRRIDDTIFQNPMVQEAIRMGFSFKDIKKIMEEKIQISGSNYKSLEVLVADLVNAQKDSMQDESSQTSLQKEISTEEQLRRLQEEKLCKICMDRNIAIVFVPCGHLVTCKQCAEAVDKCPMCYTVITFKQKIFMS
Sequence of GST-c-IAP-1, Q13490 (Q13490 whole entry): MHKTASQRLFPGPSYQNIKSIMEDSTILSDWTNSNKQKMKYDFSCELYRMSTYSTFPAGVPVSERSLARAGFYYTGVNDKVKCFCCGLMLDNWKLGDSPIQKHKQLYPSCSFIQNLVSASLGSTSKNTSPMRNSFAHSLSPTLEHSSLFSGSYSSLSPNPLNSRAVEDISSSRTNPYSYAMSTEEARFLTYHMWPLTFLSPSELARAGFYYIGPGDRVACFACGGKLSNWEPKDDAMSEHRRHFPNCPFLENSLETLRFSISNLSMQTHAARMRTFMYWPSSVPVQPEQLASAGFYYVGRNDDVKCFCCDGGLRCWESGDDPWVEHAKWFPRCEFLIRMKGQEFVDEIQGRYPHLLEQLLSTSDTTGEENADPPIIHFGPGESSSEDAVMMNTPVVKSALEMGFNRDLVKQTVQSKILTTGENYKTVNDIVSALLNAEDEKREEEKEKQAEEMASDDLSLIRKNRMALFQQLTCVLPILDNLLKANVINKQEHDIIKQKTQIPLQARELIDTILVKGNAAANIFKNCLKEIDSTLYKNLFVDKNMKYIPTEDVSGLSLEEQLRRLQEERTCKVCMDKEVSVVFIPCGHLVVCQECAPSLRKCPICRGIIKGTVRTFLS

Protein | substrate cleavage by purified caspase [1] | average ratio velocities (vi/vo) of DEVD-AFC hydrolysis [1] | coupled reaction: pro-caspase-3 activation by caspase-9, Ac-DEVD-AFC hydrolysis [2] | coupled reaction: pro-caspase-3 activation by caspase-9, Ac-DEVD-AFC hydrolysis [3] | cleavage of purified pro-caspase-3 by active caspase-9 (immunoblot) [1] | coupled reaction: pro-caspase-3 activation by caspase-9, Ac-DEVD-AFC hydrolysis [1]
purified recombinant caspase-1 (protein) NPAMPTSSGSEGNVKLCSLEEAQRIWKQKSAEIYPIMDKSSRTRLALIICNEEFDSIPRRTGAEVDITGMTMLLQNLGYSVDVKKNLTASDMTTELEAFAHRPEHKTSDSTFLVFMSHGIREGICGKKHSEQVPDILQLNAIFNMLNTKNCPSLKDKPKVIIIQACRGDSPGVVWFKDSVGVSGNLSLPTTEEFEDDAIKKAHIEKDFIAFCSSTPDNVSWRHPTMGSVFIGRLIEHMQEYACSCDVEEIFRKVRFSFEQPDGRAQMPTTERVTLTRCFYLFPGH | did not interfere with substrate cleavage by caspase-1, caspase-6 or caspase-8, even when added at a 50-fold molar excess | – | – | – | – | –
purified recombinant active caspase-8 (catalytic subunit, Ser 217 to the C-terminus, His6-tagged) (protein) SESQTLDKVYQMKSKPRGYCLIINNHNFAKAREKVPKLHSIRDRNGTHLDAGALTTTFEELHFEIKPHDDCTVEQIYEILKIYQLMDHSNMDCFICCILSHGDKGIIYGTDGQEAPIYELTSQFTGLKCPSLAGKPKVFFIQACQGDNYQKGIPVETDSEEQPYLEMDLSSPQTRYIPDEADFLLGMATVNNCVSYRNPAEGTWYIQSLCQSLRERCPRGDDILTILTEVNYEVSNKDDKKNMGKQMPQPTFTLRKKLVFPSD | did not interfere with substrate cleavage by caspase-1, caspase-6 or caspase-8, even when added at a 50-fold molar excess | ratios of about 1.0 | – | – | – | –
purified recombinant caspase-6 (His6-tagged) (protein) chain 1: AFYKREMFDPAEKYKMDHRRRGIALIFNHERFFWHLTLPERRGTCADRDNLTRRFSDLGFEVKCFNDLKAEELLLKIHEVSTVSHADADCFVCVFLSHGEGNHIYAYDAKIEIQTLTGLFKGDKCHSLVGKPKIFIIQACRGNQHDVPVIPLDVVD chain 2: AASVYTLPAGADFLMCYSVAEGYYSHRETVNGSWYIQDLCEMLGKYGSSLEFTELLTLVNRKVSQRRVDFCKDPSAIGKKQVPCFASMLTKKLHFFPKSN | did not interfere with substrate cleavage by caspase-1, caspase-6 or caspase-8, even when added at a 50-fold molar excess | ratios of about 1.0 | – | – | – | –
purified recombinant active caspase-9 (His6-tagged) (protein) MDEADRRLLRRCRLRLVEELQVDQLWDALLSRELFRPHMIEDIQRAGSGSRRDQARQLIIDLETRGSQALPLFISCLEDTGQDMLASFLRTNRQAAKLSKPTLENLTPVVLRPEIRKPEVLRPETPRPVDIGSGGFGDVGALESLRGNADLAYILSMEPCGHCLIINNVNFCRESGLRTRTGSNIDCEKLRRRFSSLHFMVEVKGDLTAKKMVLALLELAQQDHGALDCCVVVILSHGCQASHLQFPGAVYGTDGCPVSVEKIVNIFNGTSCPSLGGKPKLFFIQACGGEQKDHGFEVASTSPEDESPGSNPEPDATPFQEGLRTFDQLDAISSLPTPSDIFVSYSTFPGFVSWRDPKSGSWYVETLDDIFEQWAHSEDLQSLLLRVANAVSVKGIYKQMPGCFNFLRKKLFFKTS | – | – | XIAP, c-IAP-1 and c-IAP-2 each efficiently inhibited pro-caspase-3 activation and cleavage of the tetrapeptide substrate | XIAP, c-IAP-1 and c-IAP-2 each efficiently inhibited pro-caspase-3 activation and cleavage of the tetrapeptide substrate | Addition of an equimolar concentration of XIAP relative to caspase-9 strongly inhibited cleavage of pro-caspase-3. | XIAP, c-IAP-1 and c-IAP-2 each efficiently inhibited pro-caspase-3 activation and cleavage of the tetrapeptide substrate
